Measurements taken from publication PMC12990809.

How the values were obtained:
Test in all cases: pulldown
Conditions in all cases: 20 nM protein, 1.5 uM RNA pool; 20 mM HEPES pH 7.8, 70 mM KCl, 10 mM NaCl, 10% glycerol, 2 mM DTT, 0.1 ug/uL BSA; 30 min, 4 C
[1] = biological target: T1, rbm-28 (Caenorhabditis elegans) (UniProt O62325)
T1 sequence: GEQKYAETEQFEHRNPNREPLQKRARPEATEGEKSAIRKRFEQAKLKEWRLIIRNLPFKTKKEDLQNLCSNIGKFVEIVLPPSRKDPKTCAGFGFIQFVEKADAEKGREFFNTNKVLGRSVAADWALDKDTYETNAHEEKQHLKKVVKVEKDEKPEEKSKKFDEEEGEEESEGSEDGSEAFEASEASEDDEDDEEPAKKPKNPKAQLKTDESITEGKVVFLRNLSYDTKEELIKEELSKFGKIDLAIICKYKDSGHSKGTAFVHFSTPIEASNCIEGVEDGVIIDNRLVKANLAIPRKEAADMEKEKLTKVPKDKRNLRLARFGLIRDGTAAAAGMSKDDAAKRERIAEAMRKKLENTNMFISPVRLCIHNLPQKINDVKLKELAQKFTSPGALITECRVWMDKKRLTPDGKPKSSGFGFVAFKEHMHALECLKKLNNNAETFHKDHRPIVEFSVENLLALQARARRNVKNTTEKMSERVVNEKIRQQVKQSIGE

[2] = biological target: PGTG_00837 (Puccinia graminis) (UniProt E3JTY5)
[3] = biological target: T2, PK00513.1 (Cannabis sativa) (UniProt A0A7J6DZZ3)
T2 sequence: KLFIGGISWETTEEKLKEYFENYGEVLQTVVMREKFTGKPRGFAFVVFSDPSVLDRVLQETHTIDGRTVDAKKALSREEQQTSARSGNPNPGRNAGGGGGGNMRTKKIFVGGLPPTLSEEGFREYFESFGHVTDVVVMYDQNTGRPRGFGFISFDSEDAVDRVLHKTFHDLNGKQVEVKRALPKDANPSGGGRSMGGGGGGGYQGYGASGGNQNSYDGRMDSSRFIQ

[4] = biological target: T3, K07H8.9 (Caenorhabditis elegans) (UniProt O45180)
T3 sequence: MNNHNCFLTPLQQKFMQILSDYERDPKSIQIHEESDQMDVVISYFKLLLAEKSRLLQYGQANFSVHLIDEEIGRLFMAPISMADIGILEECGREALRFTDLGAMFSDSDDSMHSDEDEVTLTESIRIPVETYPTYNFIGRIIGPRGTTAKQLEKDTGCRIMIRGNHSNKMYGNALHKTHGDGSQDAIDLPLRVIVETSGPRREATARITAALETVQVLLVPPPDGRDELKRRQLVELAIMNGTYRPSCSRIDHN

[5] = biological target: T4, UBA2B (Arabidopsis thaliana) (UniProt O80678)
T4 sequence: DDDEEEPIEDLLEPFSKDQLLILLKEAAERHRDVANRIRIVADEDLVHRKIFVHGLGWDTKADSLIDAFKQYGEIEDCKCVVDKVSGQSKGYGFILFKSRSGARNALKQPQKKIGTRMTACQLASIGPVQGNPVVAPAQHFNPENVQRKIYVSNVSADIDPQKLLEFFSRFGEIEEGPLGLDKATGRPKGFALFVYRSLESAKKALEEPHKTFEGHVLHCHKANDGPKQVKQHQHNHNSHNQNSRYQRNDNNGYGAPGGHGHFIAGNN

[6] = biological target: T5, PK05405.1 I85V;D92G;E327K;K328E (Cannabis sativa) (UniProt A0A7J6HVI1)
T5 sequence: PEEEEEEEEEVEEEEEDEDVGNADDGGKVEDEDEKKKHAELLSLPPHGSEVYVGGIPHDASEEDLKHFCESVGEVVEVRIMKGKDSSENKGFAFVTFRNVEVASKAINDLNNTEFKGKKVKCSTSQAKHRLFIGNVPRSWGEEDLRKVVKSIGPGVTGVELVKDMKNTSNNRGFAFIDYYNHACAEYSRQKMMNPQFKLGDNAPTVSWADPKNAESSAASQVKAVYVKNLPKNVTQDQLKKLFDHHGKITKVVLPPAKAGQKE

[7] = biological target: T6, PK00840.1 S382G (Cannabis sativa) (UniProt A0A803NL23)
T6 sequence: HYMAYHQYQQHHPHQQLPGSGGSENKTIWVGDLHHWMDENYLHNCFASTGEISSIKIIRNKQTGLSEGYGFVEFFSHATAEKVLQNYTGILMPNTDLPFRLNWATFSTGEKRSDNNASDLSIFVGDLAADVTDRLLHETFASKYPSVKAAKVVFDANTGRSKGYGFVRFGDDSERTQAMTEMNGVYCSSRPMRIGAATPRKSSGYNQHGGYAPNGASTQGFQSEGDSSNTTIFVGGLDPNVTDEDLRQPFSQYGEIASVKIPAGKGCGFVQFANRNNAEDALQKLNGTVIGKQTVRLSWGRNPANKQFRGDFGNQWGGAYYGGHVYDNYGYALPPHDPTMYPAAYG

[8] = biological target: T7, PK20770.1 (Cannabis sativa) (UniProt A0A7J6HVT3)
T7 sequence: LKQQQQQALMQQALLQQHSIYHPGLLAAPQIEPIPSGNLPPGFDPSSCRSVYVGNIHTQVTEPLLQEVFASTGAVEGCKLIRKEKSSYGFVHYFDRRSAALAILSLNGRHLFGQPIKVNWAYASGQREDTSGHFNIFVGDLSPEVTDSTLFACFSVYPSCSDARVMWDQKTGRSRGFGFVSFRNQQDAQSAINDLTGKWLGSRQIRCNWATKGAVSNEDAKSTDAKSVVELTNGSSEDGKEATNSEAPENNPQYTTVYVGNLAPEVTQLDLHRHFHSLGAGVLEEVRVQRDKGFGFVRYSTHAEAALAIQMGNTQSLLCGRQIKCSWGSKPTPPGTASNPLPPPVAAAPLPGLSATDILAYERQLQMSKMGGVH

AGACUCU [RNAcompete motif RNCMPT00470]
binding signal (z-score (mean of top ten 7-mers)) [1]: 9.34

GGUGGA [RNAcompete motif RNCMPT00476]
binding signal (z-score (mean of top ten 7-mers)) [2]: 6.99

GUAGGAA [RNAcompete motif RNCMPT00462]
binding signal (z-score (mean of top ten 7-mers)) [3]: 10.4

UACUNAC [RNAcompete motif RNCMPT00469]
binding signal (z-score (mean of top ten 7-mers)) [4]: 7.13

UUUUU [RNAcompete motif RNCMPT00475]
binding signal (z-score (mean of top ten 7-mers)) [5]: 10.7

UUUUUCG [RNAcompete motif RNCMPT00466]
binding signal (z-score (mean of top ten 7-mers)) [6]: 7.47

UUUUUU [RNAcompete motif RNCMPT00461]
binding signal (z-score (mean of top ten 7-mers)) [7]: 7.67

UUUUUU [RNAcompete motif RNCMPT00464]
binding signal (z-score (mean of top ten 7-mers)) [8]: 14.6
